Assay [1] concerns the target T1, FcγRIIIa extracellular domain with C-terminal His tag (human, UniProt P08637 17-208).
T1 construct: extracellular domain; also called 3a; FcgRIIIa
As to the kind of experiment: SPR, relative to GpH7-A5/GpH7-B3/GpL16-k0. As to the method: (§1) The heterodimerized antibodies He Abs in which one of the H chains was introduced with an alteration were assayed for their binding activities to each activating FcγR and inhibitory FcγR according to the method described in Example 4. […] The activating FcγRs in FIGS. 26, 27, 28, and 29 are FcγRIa, FcγRIIa (R), FcγRIIa (H), and FcγRIIIa, respectively.
(§2) Analysis of interaction between objective antibody and the FcγR was carried out using Biacore T100 (GE Healthcare). HBS-EP+ (GE Healthcare) was used as the running buffer, and the measurement temperature was set to 25° C. Chips produced by immobilizing the antigen peptide by the amine coupling method to a Series S Sencor Chip CM5 (GE Healthcare), or alternatively, chips produced by allowing preliminarily biotinylated antigen peptides to interact with and immobilize onto a Series S Sensor Chip SA (certified) (GE Healthcare) were used. Antibodies of interest were captured onto an antigen peptide-immobilized chip, and allowed to interact to each FcγR diluted with running buffer. To regenerate and repeatedly use the chip, the antibodies captured on the chip were washed off by reacting 10 mM glycine-HCl, pH 1.5.
In general terms: Surface plasmon resonance follows binding to a sensor surface in real time, without labels.

The target in assay [2] is T2, FcγRIIb extracellular domain with C-terminal His tag (human, UniProt P31994 43-217).
T2 construct: extracellular domain; also called 2b; FcgRIIb
T2 sequence (looked up): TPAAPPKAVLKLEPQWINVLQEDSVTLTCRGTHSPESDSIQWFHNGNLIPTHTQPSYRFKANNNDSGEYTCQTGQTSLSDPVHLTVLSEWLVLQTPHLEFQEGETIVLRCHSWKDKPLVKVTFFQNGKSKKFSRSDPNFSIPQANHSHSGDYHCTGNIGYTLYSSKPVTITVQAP
As to the kind of experiment: SPR, relative to GpH7-A5/GpH7-B3/GpL16-k0. As to the method:
as §1, §2

T1 sequence (P08637 17-208): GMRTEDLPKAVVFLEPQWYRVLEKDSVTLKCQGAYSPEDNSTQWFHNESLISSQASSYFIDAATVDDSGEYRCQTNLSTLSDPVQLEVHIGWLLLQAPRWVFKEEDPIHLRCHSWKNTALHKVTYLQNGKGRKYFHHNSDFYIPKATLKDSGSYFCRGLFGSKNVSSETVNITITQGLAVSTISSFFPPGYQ

B1: GpH7-A5/GpH7-B3 variant A330_15Y/GpL16-k0 (antibody, human IgG1, kappa)
heavy 1: not shown
heavy 2: not shown
light: DIVMTQSPLSLPVTPGEPASISCQASESLVHSNRNTYLHWYLQKPGQSPQLLIYKVSNRFSGVPDRFSGSGSGTDFTLKISRVEAEDVGVYYCSQNTHVPPTFGQGTKVEIERTVAAPSVFIFPPSDEQLKSGTASVVCLLNNFYPREAKVQWKVDNALQSGNSQESVTEQDSKDSTYSLSSTLTLSKADYEKHKVYACEVTHQGLSSPVTKSFNRGEC
notes: He Ab: alteration in one H chain only; also called He Ab
For B1, the He/Con_3a in assay [1] came to 125 control=100. This molecule also showed a He/Con_2b in assay [2] of 95 control=100.

B2: GpH7-A5/GpH7-B3 variant D270_10E/GpL16-k0 (antibody, human IgG1, kappa)
heavy 1: not shown
heavy 2: not shown
light: DIVMTQSPLSLPVTPGEPASISCQASESLVHSNRNTYLHWYLQKPGQSPQLLIYKVSNRFSGVPDRFSGSGSGTDFTLKISRVEAEDVGVYYCSQNTHVPPTFGQGTKVEIERTVAAPSVFIFPPSDEQLKSGTASVVCLLNNFYPREAKVQWKVDNALQSGNSQESVTEQDSKDSTYSLSSTLTLSKADYEKHKVYACEVTHQGLSSPVTKSFNRGEC
notes: as for B1
Take B2: the He/Con_3a in assay [1] stood at 123 control=100. This molecule had a He/Con_2b in assay [2] of 76.5 control=100.

B3: GpH7-A5/GpH7-B3 variant A330_20W/GpL16-k0 (antibody, human IgG1, kappa)
heavy 1: not shown
heavy 2: not shown
light: DIVMTQSPLSLPVTPGEPASISCQASESLVHSNRNTYLHWYLQKPGQSPQLLIYKVSNRFSGVPDRFSGSGSGTDFTLKISRVEAEDVGVYYCSQNTHVPPTFGQGTKVEIERTVAAPSVFIFPPSDEQLKSGTASVVCLLNNFYPREAKVQWKVDNALQSGNSQESVTEQDSKDSTYSLSSTLTLSKADYEKHKVYACEVTHQGLSSPVTKSFNRGEC
notes: as for B1
Consider B3, for which, in assay [1], the He/Con_3a is 104 control=100. In addition, in assay [2], the He/Con_2b is 76.1 control=100.

B4: GpH7-A5/GpH7-B3 variant E333_02A/GpL16-k0 (antibody, human IgG1, kappa)
heavy 1: not shown
heavy 2: not shown
light: DIVMTQSPLSLPVTPGEPASISCQASESLVHSNRNTYLHWYLQKPGQSPQLLIYKVSNRFSGVPDRFSGSGSGTDFTLKISRVEAEDVGVYYCSQNTHVPPTFGQGTKVEIERTVAAPSVFIFPPSDEQLKSGTASVVCLLNNFYPREAKVQWKVDNALQSGNSQESVTEQDSKDSTYSLSSTLTLSKADYEKHKVYACEVTHQGLSSPVTKSFNRGEC
notes: as for B1
For B4, in assay [1], the He/Con_3a is 105 control=100. In addition, the He/Con_2b in assay [2] turned out to be 83.8 control=100.

B5: GpH7-A5/GpH7-B3 variant E333_03V/GpL16-k0 (antibody, human IgG1, kappa)
heavy 1: not shown
heavy 2: not shown
light: DIVMTQSPLSLPVTPGEPASISCQASESLVHSNRNTYLHWYLQKPGQSPQLLIYKVSNRFSGVPDRFSGSGSGTDFTLKISRVEAEDVGVYYCSQNTHVPPTFGQGTKVEIERTVAAPSVFIFPPSDEQLKSGTASVVCLLNNFYPREAKVQWKVDNALQSGNSQESVTEQDSKDSTYSLSSTLTLSKADYEKHKVYACEVTHQGLSSPVTKSFNRGEC
notes: as for B1
In turn, B5 displayed a He/Con_3a in assay [1] of 103 control=100. Further, the He/Con_2b in assay [2] came to 93.2 control=100.

B6: GpH7-A5/GpH7-B3 variant E333_04F/GpL16-k0 (antibody, human IgG1, kappa)
heavy 1: not shown
heavy 2: not shown
light: DIVMTQSPLSLPVTPGEPASISCQASESLVHSNRNTYLHWYLQKPGQSPQLLIYKVSNRFSGVPDRFSGSGSGTDFTLKISRVEAEDVGVYYCSQNTHVPPTFGQGTKVEIERTVAAPSVFIFPPSDEQLKSGTASVVCLLNNFYPREAKVQWKVDNALQSGNSQESVTEQDSKDSTYSLSSTLTLSKADYEKHKVYACEVTHQGLSSPVTKSFNRGEC
notes: as for B1
Molecule B6 came in with a He/Con_3a in assay [1] of 101 control=100. The molecule also showed a He/Con_2b in assay [2] of 94.6 control=100.

B7: GpH7-A5/GpH7-B3 variant A330_16H/GpL16-k0 (antibody, human IgG1, kappa)
heavy 1: not shown
heavy 2: not shown
light: DIVMTQSPLSLPVTPGEPASISCQASESLVHSNRNTYLHWYLQKPGQSPQLLIYKVSNRFSGVPDRFSGSGSGTDFTLKISRVEAEDVGVYYCSQNTHVPPTFGQGTKVEIERTVAAPSVFIFPPSDEQLKSGTASVVCLLNNFYPREAKVQWKVDNALQSGNSQESVTEQDSKDSTYSLSSTLTLSKADYEKHKVYACEVTHQGLSSPVTKSFNRGEC
notes: as for B1
With B7, in assay [1], the He/Con_3a stood at 104 control=100. The molecule further showed a He/Con_2b in assay [2] of 87.6 control=100.

B8: GpH7-A5/GpH7-B3 variant E333_09D/GpL16-k0 (antibody, human IgG1, kappa)
heavy 1: not shown
heavy 2: not shown
light: DIVMTQSPLSLPVTPGEPASISCQASESLVHSNRNTYLHWYLQKPGQSPQLLIYKVSNRFSGVPDRFSGSGSGTDFTLKISRVEAEDVGVYYCSQNTHVPPTFGQGTKVEIERTVAAPSVFIFPPSDEQLKSGTASVVCLLNNFYPREAKVQWKVDNALQSGNSQESVTEQDSKDSTYSLSSTLTLSKADYEKHKVYACEVTHQGLSSPVTKSFNRGEC
notes: as for B1
Regarding B8, in assay [1], the He/Con_3a was 112 control=100. In assay [2], this molecule came in with a He/Con_2b of 94.3 control=100.

The values above are taken from patent US20180155451A1 (published 2018).
